Sequences and labels used below:
B1: POU domain, class 4, transcription factor 1, residues 266 to 347; numbered along this chain, Q01851 (parent)
chain: RELEAFAERFKQRRIKLGVTQADVGSALANLKIPGVGSLSQSTICRFESLTLSHNNMIALKPILQAWLEEAEGAQREKMNKP

34 variants from the Human Domainome abundance scans (Beltran et al. 2025) can be followed below.

± gives the uncertainty stated by the source.

The data set covers variants of B1. In words: abundance fitness (aPCA) (normalised: wild type 0, dead -1); higher = more abundant; growth selection in yeast, the domain comes from the species named. The conditions noted are these: Homo sapiens.
Take RELEAKAERFKQRRIKLGVTQADVGSALANLKIPGVGSLSQSTICRFESLTLSHNNMIALKPILQAWLEEAEGAQREKMNKP [F6K]: the abundance fitness is -1 ± 0.086.

Take RELEAQAERFKQRRIKLGVTQADVGSALANLKIPGVGSLSQSTICRFESLTLSHNNMIALKPILQAWLEEAEGAQREKMNKP [F6Q]: the abundance fitness is -0.622 ± 0.047.

As to RELEALAERFKQRRIKLGVTQADVGSALANLKIPGVGSLSQSTICRFESLTLSHNNMIALKPILQAWLEEAEGAQREKMNKP [F6L], the abundance fitness is -0.362 ± 0.027.

With RELEACAERFKQRRIKLGVTQADVGSALANLKIPGVGSLSQSTICRFESLTLSHNNMIALKPILQAWLEEAEGAQREKMNKP [F6C], the abundance fitness was -0.478 ± 0.039.

In the case of RELEANAERFKQRRIKLGVTQADVGSALANLKIPGVGSLSQSTICRFESLTLSHNNMIALKPILQAWLEEAEGAQREKMNKP [F6N], the abundance fitness was -0.79 ± 0.098.

On to RELEAGAERFKQRRIKLGVTQADVGSALANLKIPGVGSLSQSTICRFESLTLSHNNMIALKPILQAWLEEAEGAQREKMNKP [F6G], for which the abundance fitness is -0.906 ± 0.034.

Regarding RELEATAERFKQRRIKLGVTQADVGSALANLKIPGVGSLSQSTICRFESLTLSHNNMIALKPILQAWLEEAEGAQREKMNKP [F6T], the abundance fitness was -0.452 ± 0.037.

Consider RELEAWAERFKQRRIKLGVTQADVGSALANLKIPGVGSLSQSTICRFESLTLSHNNMIALKPILQAWLEEAEGAQREKMNKP [F6W], for which the abundance fitness was -0.139 ± 0.026.

For RELEARAERFKQRRIKLGVTQADVGSALANLKIPGVGSLSQSTICRFESLTLSHNNMIALKPILQAWLEEAEGAQREKMNKP [F6R], the abundance fitness is -0.987 ± 0.042.

For the variant RELEAPAERFKQRRIKLGVTQADVGSALANLKIPGVGSLSQSTICRFESLTLSHNNMIALKPILQAWLEEAEGAQREKMNKP [F6P], the abundance fitness was -0.951 ± 0.071.

As to RELEASAERFKQRRIKLGVTQADVGSALANLKIPGVGSLSQSTICRFESLTLSHNNMIALKPILQAWLEEAEGAQREKMNKP [F6S], the abundance fitness was -0.516 ± 0.032.

For the variant RELEAIAERFKQRRIKLGVTQADVGSALANLKIPGVGSLSQSTICRFESLTLSHNNMIALKPILQAWLEEAEGAQREKMNKP [F6I], the abundance fitness is -0.318 ± 0.051.

Turning to RELEAVAERFKQRRIKLGVTQADVGSALANLKIPGVGSLSQSTICRFESLTLSHNNMIALKPILQAWLEEAEGAQREKMNKP [F6V], the abundance fitness is -0.378 ± 0.026.

Turning to RELEADAERFKQRRIKLGVTQADVGSALANLKIPGVGSLSQSTICRFESLTLSHNNMIALKPILQAWLEEAEGAQREKMNKP [F6D], the abundance fitness is -0.442 ± 0.041.

On to RELEAEAERFKQRRIKLGVTQADVGSALANLKIPGVGSLSQSTICRFESLTLSHNNMIALKPILQAWLEEAEGAQREKMNKP [F6E], for which the abundance fitness is -0.359 ± 0.03.

In the case of RELEAFDERFKQRRIKLGVTQADVGSALANLKIPGVGSLSQSTICRFESLTLSHNNMIALKPILQAWLEEAEGAQREKMNKP [A7D], the abundance fitness is -1.11 ± 0.14.

RELEAFCERFKQRRIKLGVTQADVGSALANLKIPGVGSLSQSTICRFESLTLSHNNMIALKPILQAWLEEAEGAQREKMNKP [A7C]: the abundance fitness is -0.018 ± 0.037.

For RELEDFAERFKQRRIKLGVTQADVGSALANLKIPGVGSLSQSTICRFESLTLSHNNMIALKPILQAWLEEAEGAQREKMNKP [A5D], the abundance fitness was -0.043 ± 0.085.

Turning to RELERFAERFKQRRIKLGVTQADVGSALANLKIPGVGSLSQSTICRFESLTLSHNNMIALKPILQAWLEEAEGAQREKMNKP [A5R], the abundance fitness worked out at 0.006 ± 0.037.

On to RELEVFAERFKQRRIKLGVTQADVGSALANLKIPGVGSLSQSTICRFESLTLSHNNMIALKPILQAWLEEAEGAQREKMNKP [A5V], for which the abundance fitness was -0.06 ± 0.039.

Take RELELFAERFKQRRIKLGVTQADVGSALANLKIPGVGSLSQSTICRFESLTLSHNNMIALKPILQAWLEEAEGAQREKMNKP [A5L]: the abundance fitness turned out to be 0.037 ± 0.044.

As to RELETFAERFKQRRIKLGVTQADVGSALANLKIPGVGSLSQSTICRFESLTLSHNNMIALKPILQAWLEEAEGAQREKMNKP [A5T], the abundance fitness is -0.065 ± 0.059.

Regarding RELEHFAERFKQRRIKLGVTQADVGSALANLKIPGVGSLSQSTICRFESLTLSHNNMIALKPILQAWLEEAEGAQREKMNKP [A5H], the abundance fitness is -0.063 ± 0.099.

With RELEIFAERFKQRRIKLGVTQADVGSALANLKIPGVGSLSQSTICRFESLTLSHNNMIALKPILQAWLEEAEGAQREKMNKP [A5I], the abundance fitness came out at 0.184 ± 0.14.

RELEFFAERFKQRRIKLGVTQADVGSALANLKIPGVGSLSQSTICRFESLTLSHNNMIALKPILQAWLEEAEGAQREKMNKP [A5F]: the abundance fitness was 0.042 ± 0.089.

RELEKFAERFKQRRIKLGVTQADVGSALANLKIPGVGSLSQSTICRFESLTLSHNNMIALKPILQAWLEEAEGAQREKMNKP [A5K]: the abundance fitness turned out to be 0.042 ± 0.087.

RELEMFAERFKQRRIKLGVTQADVGSALANLKIPGVGSLSQSTICRFESLTLSHNNMIALKPILQAWLEEAEGAQREKMNKP [A5M]: the abundance fitness worked out at 0.016 ± 0.074.

Consider RELECFAERFKQRRIKLGVTQADVGSALANLKIPGVGSLSQSTICRFESLTLSHNNMIALKPILQAWLEEAEGAQREKMNKP [A5C], for which the abundance fitness is -0.162 ± 0.099.

RELEQFAERFKQRRIKLGVTQADVGSALANLKIPGVGSLSQSTICRFESLTLSHNNMIALKPILQAWLEEAEGAQREKMNKP [A5Q]: the abundance fitness came out at 0.047 ± 0.062.

As to RELEYFAERFKQRRIKLGVTQADVGSALANLKIPGVGSLSQSTICRFESLTLSHNNMIALKPILQAWLEEAEGAQREKMNKP [A5Y], the abundance fitness was -0.171 ± 0.11.

Take RELEGFAERFKQRRIKLGVTQADVGSALANLKIPGVGSLSQSTICRFESLTLSHNNMIALKPILQAWLEEAEGAQREKMNKP [A5G]: the abundance fitness is -0.039 ± 0.036.

Take RELENFAERFKQRRIKLGVTQADVGSALANLKIPGVGSLSQSTICRFESLTLSHNNMIALKPILQAWLEEAEGAQREKMNKP [A5N]: the abundance fitness stood at 0.106 ± 0.16.

Regarding RELESFAERFKQRRIKLGVTQADVGSALANLKIPGVGSLSQSTICRFESLTLSHNNMIALKPILQAWLEEAEGAQREKMNKP [A5S], the abundance fitness is -0.005 ± 0.073.

Consider RELEPFAERFKQRRIKLGVTQADVGSALANLKIPGVGSLSQSTICRFESLTLSHNNMIALKPILQAWLEEAEGAQREKMNKP [A5P], for which the abundance fitness is -0.451 ± 0.1.
